Assay [1] addresses T1, human SIRPA on human macrophages (primary monocyte-derived macrophages; U937 line) (human, UniProt P78324 31-504). Description: cell-based or functional assay.
For assay [2], the target named is T2, human SIRPA v1 on BWZ cells (BWZ-huSIRPA) (human, UniProt P78324 31-504).
T2 construct: also called BWZ cells overexpressing human SIRPA; BWZ-huSIRPA v1 cells
In words: flow cytometry titration on BWZ-huSIRPA cells, 4 C. Here is the method:
After addition of fluorescently labeled secondary antibody and brief washing steps, MFI values as a function of titrated antibody concentration was recorded via FACS analysis. […] Receptor bound antibodies were detected by staining cells with anti-human IgG PE secondary antibody. Curves were fit using nonlinear regression analysis with Graphpad Prism 6 software.
A general note: Flow cytometry measures light scatter and fluorescence of single cells or particles in a stream.

Assay [3] deals with T1, human SIRPA on human macrophages …. In words: cell-based or functional assay. The source holds these as a separate data set.
The target in a further assay is T3, rat SIRPA (rat, UniProt P97710 32-373, limits assumed).
T3 sequence (looked up): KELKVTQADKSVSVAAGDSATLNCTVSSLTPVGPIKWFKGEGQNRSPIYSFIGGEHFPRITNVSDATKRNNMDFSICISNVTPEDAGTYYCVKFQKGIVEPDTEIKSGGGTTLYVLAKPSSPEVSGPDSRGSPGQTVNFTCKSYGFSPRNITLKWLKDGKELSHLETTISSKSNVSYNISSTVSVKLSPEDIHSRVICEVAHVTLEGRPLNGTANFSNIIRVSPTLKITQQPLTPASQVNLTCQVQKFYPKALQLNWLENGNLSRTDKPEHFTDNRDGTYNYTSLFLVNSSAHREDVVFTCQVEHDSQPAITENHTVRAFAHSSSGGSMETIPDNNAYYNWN
In words: ELISA, plate coated with tagged SIRPA at 1 ug/mL. Here is the method: (§1) In an ELISA assay, 96-well Immulon HBX plates were coated with His- or Fc-tagged SIRPA of a given species, as indicated, at 1 μg/mL in PBS overnight at 4C. Plates were blocked in 5% (w/v) bovine serum albumin in PBS for 1 hour, after which they were washed 3 times with PBS/0.05% Tween 20 (PBS/T). Anti-SIRPA antibodies were added to the plate in a dilution series and were incubated at room temperature for 2 hours, after which the unbound antibody was removed by washing with PBS/T. Horseradish peroxidase-conjugated anti-mouse IgG or anti-human kappa light chain (Jackson Immunoresearch) was then added to the wells and incubated for 30 minutes. Unbound antibody was removed by washing with PBS/T, after which bound antibody was detected using tetramethylbenzidine (TMB). The reaction was stopped with 2N H₂SO₄, after which the plates were read at A450.
On the technique in general: ELISA stands for enzyme-linked immunosorbent assay.

Another assay concerns the target T4, cynoSIRPA XPO15313153.1 (cynomolgus, UniProt A0A2K5VYQ9).
T4 construct: not tied one by one in the text; also called cynomolgus SIRPA; not shown: Fc or His tag
T4 sequence: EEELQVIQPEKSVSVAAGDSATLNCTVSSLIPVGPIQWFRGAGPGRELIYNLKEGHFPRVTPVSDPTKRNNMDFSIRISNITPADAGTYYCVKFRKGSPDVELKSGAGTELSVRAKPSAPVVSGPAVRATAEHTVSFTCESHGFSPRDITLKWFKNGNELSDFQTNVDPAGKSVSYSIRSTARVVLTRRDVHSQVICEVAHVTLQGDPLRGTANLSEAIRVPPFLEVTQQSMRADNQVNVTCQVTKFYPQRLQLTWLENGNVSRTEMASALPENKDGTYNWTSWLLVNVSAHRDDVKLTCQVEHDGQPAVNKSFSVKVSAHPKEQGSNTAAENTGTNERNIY
In words: ELISA, plate coated with tagged SIRPA at 1 ug/mL. Here is the method:
as §1

Another assay has as its target T5, huSIRPA v.2 NP542970.1 (human, UniProt P78324 31-373, limits assumed).
T5 construct: see m48; also called human SIRPA v2; human SIRPA-Fc (v2)
In words: ELISA, plate coated with tagged SIRPA at 1 ug/mL. The procedure: as §1

In assay [4] the target is T6, Fc-tagged dog SIRPA (accession no. XP005634938) (dog, UniProt A0A8I3P880).
T6 sequence: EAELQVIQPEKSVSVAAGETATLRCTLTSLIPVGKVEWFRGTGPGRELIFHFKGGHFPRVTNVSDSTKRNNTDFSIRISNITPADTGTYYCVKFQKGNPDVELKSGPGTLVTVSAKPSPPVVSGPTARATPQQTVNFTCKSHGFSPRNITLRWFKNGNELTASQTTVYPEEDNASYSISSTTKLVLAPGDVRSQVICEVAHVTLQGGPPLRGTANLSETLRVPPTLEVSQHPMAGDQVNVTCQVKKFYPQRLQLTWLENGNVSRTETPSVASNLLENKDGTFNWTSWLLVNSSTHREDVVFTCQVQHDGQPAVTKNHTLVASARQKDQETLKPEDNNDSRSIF
In words: ELISA, plate coated with Fc-tagged SIRPA. The procedure:
as §1

The target in assay [5] is T7, Fc-tagged marmoset SIRPA (accession no. JAB51896) (marmoset, UniProt U3F8F0 31-373).
T7 sequence: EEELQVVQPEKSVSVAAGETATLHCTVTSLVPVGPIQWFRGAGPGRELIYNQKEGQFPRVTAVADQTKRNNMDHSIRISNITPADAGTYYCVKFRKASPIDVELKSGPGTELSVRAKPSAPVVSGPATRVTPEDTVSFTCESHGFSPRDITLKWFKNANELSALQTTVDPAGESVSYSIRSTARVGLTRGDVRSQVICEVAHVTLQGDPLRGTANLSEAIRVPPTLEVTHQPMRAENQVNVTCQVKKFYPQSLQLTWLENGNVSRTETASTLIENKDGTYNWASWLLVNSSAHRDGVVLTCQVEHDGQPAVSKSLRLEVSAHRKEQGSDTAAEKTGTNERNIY
Description: ELISA, plate coated with Fc-tagged SIRPA. The procedure: as §1

In assay [6] the target is T8, histidine-tagged human SIRPA v1 (Novoprotein) (human, UniProt P78324 31-370, limits assumed).
T8 construct: bought, soluble; also called huSIRPA; soluble huSIRPA; not shown: histidine tag
Description: BLI (Octet). Here is the method:
(§2) Initial characterization of affinity matured anti-SIRPA antibodies disclosed herein comprised acquiring antigen affinity measurements using bio-layer interferometry (BLI) on a Pall ForteBio Octet RED96 instrument. Immobilized anti-mouse IgG Fc or anti-human IgG Fc antibodies captured murine anti-SIRPA 3F79 antibody and humanized anti-SIRPA 3F79 antibody on biosensors, respectively. Single cycle kinetics were performed with 25 nM huSIRPA [which variant?] or 50 nM huSIRPB 1 flowed over captured antibody 3F79 to record traces. Data analysis was performed using ForteBio Data Analysis Software, version 9.0. Standard kinetic buffer (PBS, 0.100 BSA, 0.02% Tween-20, pH 7.2) was used for the assay and for preparing reagents. […] 50 nM of histidine-tagged human SIRPA vi or human SIRPB1 (Novoprotein, Summit, NJ, USA) were then bound to the captured anti-SIRPA antibody coated surface (200 s association time, 900 s dissociation time). […] Single-curve kinetic analysis was performed using a 1:1 interaction model to extract association and dissociation rate constants (ka and kd, respectively) for each antibody. Affinity constants (KD) were calculated from the ratio kd/ka.
A general note: BLI is a label-free optical method that tracks binding on a fibre tip over time.

Assay [7] addresses T8, histidine-tagged human SIRPA v1 …. In words: BLI (Octet), antibody on anti-human IgG Fc sensor, His-huSIRPA in solution, single-curve 1:1 fit. The procedure:
as §2

T8 sequence (P78324 31-370 limits assumed): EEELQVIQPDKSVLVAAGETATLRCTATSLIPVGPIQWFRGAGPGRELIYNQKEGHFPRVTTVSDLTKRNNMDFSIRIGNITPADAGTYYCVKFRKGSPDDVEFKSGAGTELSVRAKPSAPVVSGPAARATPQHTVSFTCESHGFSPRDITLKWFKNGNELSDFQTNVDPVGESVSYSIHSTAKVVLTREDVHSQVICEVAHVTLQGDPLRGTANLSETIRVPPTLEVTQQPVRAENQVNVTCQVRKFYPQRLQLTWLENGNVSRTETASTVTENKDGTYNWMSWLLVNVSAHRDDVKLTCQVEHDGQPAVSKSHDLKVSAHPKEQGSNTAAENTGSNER
T1 sequence (P78324 31-370): as the sequence (P78324 31-370 limits assumed) above
T5 sequence (P78324 31-373 limits assumed): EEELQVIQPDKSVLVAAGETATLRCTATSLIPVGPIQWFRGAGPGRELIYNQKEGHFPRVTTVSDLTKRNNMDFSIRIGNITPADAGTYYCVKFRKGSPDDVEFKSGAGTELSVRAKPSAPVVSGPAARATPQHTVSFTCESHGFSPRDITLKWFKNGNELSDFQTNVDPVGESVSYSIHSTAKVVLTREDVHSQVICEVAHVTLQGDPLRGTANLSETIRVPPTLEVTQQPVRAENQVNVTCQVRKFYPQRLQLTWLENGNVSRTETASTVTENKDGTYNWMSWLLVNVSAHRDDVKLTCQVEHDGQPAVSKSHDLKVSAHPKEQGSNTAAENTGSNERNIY
T2 sequence (P78324 31-504): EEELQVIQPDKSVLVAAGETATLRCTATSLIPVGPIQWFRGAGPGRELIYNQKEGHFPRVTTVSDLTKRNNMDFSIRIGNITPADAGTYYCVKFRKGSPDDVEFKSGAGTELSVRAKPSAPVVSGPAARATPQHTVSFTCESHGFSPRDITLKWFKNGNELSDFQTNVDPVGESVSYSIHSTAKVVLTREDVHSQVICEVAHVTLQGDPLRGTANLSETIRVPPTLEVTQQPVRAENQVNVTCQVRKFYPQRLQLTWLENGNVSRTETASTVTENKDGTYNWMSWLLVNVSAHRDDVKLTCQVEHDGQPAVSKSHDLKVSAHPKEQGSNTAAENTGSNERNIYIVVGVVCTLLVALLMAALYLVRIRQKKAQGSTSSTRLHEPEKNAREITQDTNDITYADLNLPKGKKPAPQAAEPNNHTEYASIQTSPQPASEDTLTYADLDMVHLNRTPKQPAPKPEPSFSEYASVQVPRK

B1: 3F9-14 (antibody)
heavy: not shown
light: DIQLTQSPSSLSASVGDRVTITCRASKSVSSGGYSYMHWYQQKPGKAPKLLIYLASNLESGVPSRFSGSGSGTDFTLTISSVQPEDFATYYCQHNRELPVTFGQGTKLEIKRTVAAPSVFIFPPSDEQLKSGTASVVCLLNNFYPREAKVQWKVDNALQSGNSQESVTEQDSKDSTYSLSSTLTLSKADYEKHKVYACEVTHQGLSSPVTKSFNRGEC
notes: also called mAb 3F9-14; hu3F9-14
By EC50 is commonly meant the midpoint of the concentration-response curve. Read a low EC50 as a more potent agent. The term Kd denotes the constant that tells how readily two partners part at equilibrium. A low value points to tighter binding. By koff is commonly meant the rate constant with which the complex falls apart. A low value points to a long-lived complex. By kon is commonly meant the rate constant with which the complex forms. Read a low kon as slow association. B1: in assay [1], the “SIRPA IC50 (nM), downregulation on U937 cells” value worked out at 1.17 nM and the “SIRPA Max % DR, U937 cells” value turned out to be 69%. The molecule further returned a 50% effective concentration (EC50) in assay [2] of 0.42 nM. Also, in assay [3], the “Phagocytosis, fold increase over baseline activity” value was 1.56 fold; the “SIRPA IC50 (nM), downregulation on human primary macrophages” value is 0.0372 nM; the “SIRPA Max % DR, human primary macrophages” value stood at 89%. Also, the binding result with rat SIRPA is on record as “no binding”. The response with cynoSIRPA XPO15313153.1 was half-maximal at 0.879 nM (EC50). In the assay with huSIRPA v.2 NP542970.1, this molecule came in with an EC50 of 0.08 nM. This molecule gave an EC50 in [4] of 0.64 nM. Further, in assay [5], the concentration for a half-maximal effect (EC50) was determined as 1.2 nM. For the same molecule, the “fold increase in affinity relative to parental h3F9” value in assay [6] is ~10 fold. For the same molecule, in assay [7], the Kd is 0.618 nM, the off-rate constant (koff) came out at 0.000102 s⁻¹ and the kon was found to be 165000 M⁻¹ s⁻¹.

B2: 3F9-22 (antibody)
heavy: not shown
light: B1 light
notes: also called mAb 3F9-22; hu3F9-22
B2: in [1], the “SIRPA IC50 (nM), downregulation on U937 cells” value is 0.187 nM and the “SIRPA Max % DR, U937 cells” value is 76%. This molecule also yielded an EC50 in assay [2] of 0.49 nM. Besides, in assay [3], the “Phagocytosis, fold increase over baseline activity” value was 1.68 fold; the “SIRPA IC50 (nM), downregulation on human primary macrophages” value was 0.0542 nM; the “SIRPA Max % DR, human primary macrophages” value amounted to 91%. Moreover, in the assay with rat SIRPA, the binding result was “no binding”. The EC50 with cynoSIRPA XPO15313153.1 is 0.107 nM. The same molecule registered an EC50 with huSIRPA v.2 NP542970.1 of 0.082 nM. The response in [4] was half-maximal at 0.83 nM (EC50). In addition, the concentration giving a half-maximal response (EC50) in [5] is 4.3 nM. Also, the “fold increase in affinity relative to parental h3F9” value in assay [6] is ~10 fold. In addition, in assay [7], binding was put at a Kd of 0.646 nM, the koff is 0.000113 s⁻¹ and the kon was 174000 M⁻¹ s⁻¹.

For the origin of these results see patent publication US20240301071A1 (Alector, published 2024).
